The labels stand for the following.
B1: NEK8 (parent)
chain: YTFGSNQHGQLGTNTRRGSRAPCK
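Further: lentivirally expressed fusions sorted by FACS into six bins by GFP to DsRed ratio, PSI derived from sequencing read proportions per bin multiplied by bin number.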

In this data set the parent is B1. Briefly: protein stability index of a GFP-peptide fusion (GPS, HEK-293T) (PSI 1-6); higher = more stable. To be noted: c terminus: a fixed tail appended.
For the variant YTFCSNQHGQLGTNTRRGSRAPCK [G4C], the protein stability index came out at 2.91.
In the case of YTFWSNQHGQLGTNTRRGSRAPCK [G4W], the protein stability index is 2.91.
Next, YTFISNQHGQLGTNTRRGSRAPCK [G4I]: 3.72; YTFSSNQHGQLGTNTRRGSRAPCK [G4S]: 3.66; YTFDSNQHGQLGTNTRRGSRAPCK [G4D]: 4.39.
For YTFPSNQHGQLGTNTRRGSRAPCK [G4P], the protein stability index came out at 4.19.
As to YTFESNQHGQLGTNTRRGSRAPCK [G4E], the protein stability index came to 4.33.
For the variant YTFASNQHGQLGTNTRRGSRAPCK [G4A], the protein stability index came to 3.44.
On to YTFVSNQHGQLGTNTRRGSRAPCK [G4V], for which the protein stability index worked out at 4.2.
Next, YTFHSNQHGQLGTNTRRGSRAPCK [G4H]: 3.91.
Next, YTFLSNQHGQLGTNTRRGSRAPCK [G4L]: 3.99; YTFRSNQHGQLGTNTRRGSRAPCK [G4R]: 4.36; YTFYSNQHGQLGTNTRRGSRAPCK [G4Y]: 3.42.
Next, YTFMSNQHGQLGTNTRRGSRAPCK [G4M]: 3.44; YTFNSNQHGQLGTNTRRGSRAPCK [G4N]: 3.82; YTFKSNQHGQLGTNTRRGSRAPCK [G4K]: 3.6.
In the case of YTFQSNQHGQLGTNTRRGSRAPCK [G4Q], the protein stability index was 4.04.
As to YTFTSNQHGQLGTNTRRGSRAPCK [G4T], the protein stability index was 3.54.
Next, YTFFSNQHGQLGTNTRRGSRAPCK [G4F]: 3.64; YTFGLNQHGQLGTNTRRGSRAPCK [S5L]: 3.62.
Regarding YTFGENQHGQLGTNTRRGSRAPCK [S5E], the protein stability index was 4.61.
On to YTFGWNQHGQLGTNTRRGSRAPCK [S5W], for which the protein stability index is 2.67.
With YTFGFNQHGQLGTNTRRGSRAPCK [S5F], the protein stability index came to 2.23.
Next, YTFGTNQHGQLGTNTRRGSRAPCK [S5T]: 4.36; YTFGVNQHGQLGTNTRRGSRAPCK [S5V]: 4.09; YTFGINQHGQLGTNTRRGSRAPCK [S5I]: 3.44.
Consider YTFGCNQHGQLGTNTRRGSRAPCK [S5C], for which the protein stability index stood at 3.72.
On to YTFGANQHGQLGTNTRRGSRAPCK [S5A], for which the protein stability index turned out to be 3.63.
Turning to YTFGRNQHGQLGTNTRRGSRAPCK [S5R], the protein stability index amounted to 3.96.
Next, YTFGNNQHGQLGTNTRRGSRAPCK [S5N]: 4.14; YTFGKNQHGQLGTNTRRGSRAPCK [S5K]: 3.5.
Next, YTFGMNQHGQLGTNTRRGSRAPCK [S5M]: 4.11.
Next, YTFGPNQHGQLGTNTRRGSRAPCK [S5P]: 3.84; YTFGQNQHGQLGTNTRRGSRAPCK [S5Q]: 4.01.
As to YTFGGNQHGQLGTNTRRGSRAPCK [S5G], the protein stability index is 3.86.
Next, YTFGYNQHGQLGTNTRRGSRAPCK [S5Y]: 2.49; YTFGHNQHGQLGTNTRRGSRAPCK [S5H]: 3.66.
Next, YTFGDNQHGQLGTNTRRGSRAPCK [S5D]: 4.53.
As for YTFGSSQHGQLGTNTRRGSRAPCK [N6S], the protein stability index was determined as 3.86.
As to YTFGSIQHGQLGTNTRRGSRAPCK [N6I], the protein stability index worked out at 3.6.
As to YTFGSLQHGQLGTNTRRGSRAPCK [N6L], the protein stability index came to 3.29.
Turning to YTFGSGQHGQLGTNTRRGSRAPCK [N6G], the protein stability index is 3.52.
As to YTFGSHQHGQLGTNTRRGSRAPCK [N6H], the protein stability index turned out to be 3.75.
Next, YTFGSEQHGQLGTNTRRGSRAPCK [N6E]: 4.44.
Take YTFGSAQHGQLGTNTRRGSRAPCK [N6A]: the protein stability index was 3.94.
Regarding YTFGSMQHGQLGTNTRRGSRAPCK [N6M], the protein stability index was 3.44.
YTFGSFQHGQLGTNTRRGSRAPCK [N6F]: the protein stability index amounted to 2.61.
Regarding YTFGSCQHGQLGTNTRRGSRAPCK [N6C], the protein stability index stood at 3.78.
Next, YTFGSWQHGQLGTNTRRGSRAPCK [N6W]: 3.06; YTFGSRQHGQLGTNTRRGSRAPCK [N6R]: 4.18.
With YTFGSTQHGQLGTNTRRGSRAPCK [N6T], the protein stability index amounted to 3.54.
Next, YTFGSPQHGQLGTNTRRGSRAPCK [N6P]: 4.07; YTFGSDQHGQLGTNTRRGSRAPCK [N6D]: 4.24; YTFGSQQHGQLGTNTRRGSRAPCK [N6Q]: 4.21.
Next, YTFGSKQHGQLGTNTRRGSRAPCK [N6K]: 3.44; YTFGSVQHGQLGTNTRRGSRAPCK [N6V]: 3.75; YTFGSYQHGQLGTNTRRGSRAPCK [N6Y]: 3.48.
Next, YFFGSNQHGQLGTNTRRGSRAPCK [T2F]: 3.25; YIFGSNQHGQLGTNTRRGSRAPCK [T2I]: 2.44; YMFGSNQHGQLGTNTRRGSRAPCK [T2M]: 4.5.
Turning to YWFGSNQHGQLGTNTRRGSRAPCK [T2W], the protein stability index came to 3.32.
Next, YHFGSNQHGQLGTNTRRGSRAPCK [T2H]: 1.95.
Consider YDFGSNQHGQLGTNTRRGSRAPCK [T2D], for which the protein stability index was 4.43.
Next, YRFGSNQHGQLGTNTRRGSRAPCK [T2R]: 4.75; YSFGSNQHGQLGTNTRRGSRAPCK [T2S]: 4.31.
Next, YLFGSNQHGQLGTNTRRGSRAPCK [T2L]: 3.61.
In the case of YAFGSNQHGQLGTNTRRGSRAPCK [T2A], the protein stability index worked out at 2.77.
For YPFGSNQHGQLGTNTRRGSRAPCK [T2P], the protein stability index stood at 4.18.
Next, YKFGSNQHGQLGTNTRRGSRAPCK [T2K]: 3.83; YNFGSNQHGQLGTNTRRGSRAPCK [T2N]: 4.61.
Next, YVFGSNQHGQLGTNTRRGSRAPCK [T2V]: 2.36; YGFGSNQHGQLGTNTRRGSRAPCK [T2G]: 4.33.
Turning to YEFGSNQHGQLGTNTRRGSRAPCK [T2E], the protein stability index worked out at 4.78.
Next, YYFGSNQHGQLGTNTRRGSRAPCK [T2Y]: 4.24.
Next, YCFGSNQHGQLGTNTRRGSRAPCK [T2C]: 2.88.
Next, YQFGSNQHGQLGTNTRRGSRAPCK [T2Q]: 3.5; YTFGSNRHGQLGTNTRRGSRAPCK [Q7R]: 3.81.
Regarding YTFGSNMHGQLGTNTRRGSRAPCK [Q7M], the protein stability index was 3.66.
Turning to YTFGSNVHGQLGTNTRRGSRAPCK [Q7V], the protein stability index was 3.84.
As for YTFGSNPHGQLGTNTRRGSRAPCK [Q7P], the protein stability index was determined as 3.81.
YTFGSNDHGQLGTNTRRGSRAPCK [Q7D]: the protein stability index turned out to be 3.98.
As to YTFGSNLHGQLGTNTRRGSRAPCK [Q7L], the protein stability index amounted to 2.28.
Next, YTFGSNHHGQLGTNTRRGSRAPCK [Q7H]: 3.84.
Next, YTFGSNWHGQLGTNTRRGSRAPCK [Q7W]: 2.73.
For YTFGSNSHGQLGTNTRRGSRAPCK [Q7S], the protein stability index came to 3.58.
Next, YTFGSNTHGQLGTNTRRGSRAPCK [Q7T]: 4.28; YTFGSNIHGQLGTNTRRGSRAPCK [Q7I]: 3.45; YTFGSNKHGQLGTNTRRGSRAPCK [Q7K]: 3.8.
Next, YTFGSNNHGQLGTNTRRGSRAPCK [Q7N]: 4.06.
Take YTFGSNGHGQLGTNTRRGSRAPCK [Q7G]: the protein stability index stood at 4.07.
As for YTFGSNCHGQLGTNTRRGSRAPCK [Q7C], the protein stability index came out at 3.59.
Next, YTFGSNYHGQLGTNTRRGSRAPCK [Q7Y]: 3.09.
Next, YTFGSNEHGQLGTNTRRGSRAPCK [Q7E]: 4.2; YTFGSNAHGQLGTNTRRGSRAPCK [Q7A]: 3.55.

For the origin of these results see the supplement of paper PMC10567573.
